Reference: article PMC8223116, “A novel G-quadruplex aptamer-based spike trimeric antigen test for the detection of SARS-CoV-2”

Molecular target: SARS-CoV-2 spike RBD (SARS-CoV-2, UniProt P0DTC2 319-541)
Assay: ALISA

Binder	binding result
TCGTTGGTGGCGGCGTGCCCGGGGCACGGGGACGTCTCGCACGGC (ssDNA) [S13 truncated (45-mer)]	no binding
TGGGAGCCTGGGACATAGTGGGGAAAGAGGGGAAGAGTGGGTCT (structured_DNA) [S14 truncated (44-mer)]	no binding
